# From patent US20220145339A1, “METHOD FOR PREPARATION OF PRIMARY AMINE COMPOUNDS” (Max-Planck-Gesellschaft zur Förderung der Wissenschaften …, priority 2018, published 2022)
# B1: iminosuccinate reductase from Paracoccus denitrificans DSM 413 (enzyme)
# chain: MLVVAEKEIAGLMTPEAAFEAIEAVFASMARRKAYNFPVVREAIGHEDALYGFKGGFDASALVLGLKAGGYWPNNQKHNLINHQSTVFLFDPDTGRVSAAVGGNLLTALRTAAASAVSIKYLAPKGAKVLGMIGAGHQSAFQMRAAANVHRFEKVIGWNPHPEMLSRLADTAAELGLPFEAVELDRLGAEADVIVSITSSFSPLLMNEHVKGPTHIAAMGTDTKGKQELDPALVARARIFTDEVAQSVSIGECQHAIAAGLIREDQVGELGAVVAGDDPGRGDAEVTIFDGTGVGLQDLAVAQAVVELAKHKGVAQEVEI
# notes: Recombinant enzyme expressed in E. coli BL21 AI from pET16b and purified on Ni-NTA; It was crystallised, soaked with NAD+, and is described as a homodimer (PDB ID 6QKH); also called ISRed; IRed; not shown: N-terminal His tag and Factor Xa site from vector pET16b
# B2: ISRed: imine reductase enzyme from Paracoccus denitrificans DSM 413, amino acid sequence SEQ ID NO: 434, expressed in E. coli (protein)
# chain: B1 chain
# modifications: Paracoccus denitrificans DSM 413
# Experiments:
# [1] = aqueous solution, hydrolyzes to oxaloacetate; calculated from data of Mortarino et al., 1996; cited from earlier work
# [2] = target: the molecule itself; assay: X-ray crystal structure, self-association (homodimer)
# [3] = ISRed enzyme assay coupled with BHAD, NADH oxidation followed at 340 nm; format: biochemical, Paracoccus denitrificans DSM 413
# Method: The enzyme assay to generate aspartate from β-hydroxyaspartate (catalyzed by the BHAD and ISRed enzymes) was performed at 30° C. in a total volume of 300 μl. The reaction mixture contained 100 mM potassium phosphate pH 7.5, 1 mM BHA, 0.2 mM NADH, 0.57, 2.85, 5.7 or 11.4 μg BHAD enzyme and 0.57 μg ISRed enzyme. The oxidation of NADH was followed at 340 nm on a Cary 60 UV-Vis photospectrometer (Agilent) in quartz cuvettes with a pathlength of 10 mm (Hellma Analytics). BHA (=(2R,3S)-β-hydroxyaspartate) was custom-synthesized by the company NewChem (Newcastle upon Tyne, United Kingdom), and was determined to be >95% pure by NMR analysis.
# The enzyme assay to determine the initial reaction velocity of the ISRed enzymes was performed by incubating BHA and the required cofactor NADH together with a fixed amount of the ISRed enzyme and varying amounts of the BHAD enzyme. The initial velocity depends on the amount of the BHAD enzyme present in the reaction mixture, and therefore on the amount of iminosuccinate that is produced by the BHAD enzyme and is available to the ISRed enzyme, as illustrated in FIG. 6. The initial reaction velocity of the ISRed enzyme approaches a maximum in a Michaelis-Menten kinetic fit. The preliminary vmax of the ISRed enzyme determined by this method is 270±10 U mg^−1.
molecule,measurement,setting,value
N=C(CC(=O)O)C(=O)O [iminosuccinate],t1/2,[1],1.48 s
B1,binding result,[2],binds
B2,reaction catalyzed,"[3]; 1 mM BHA, 0.2 mM NADH, BHAD and ISRed enzymes, 30° C., potassium phosphate pH 7.5",catalyzes the conversion of iminosuccinate into L-aspartate
same,vmax,"[3]; iminosuccinate synthesized in situ from BHA with varying amounts of BHAD enzyme, cofactor NADH, Michaelis-Menten fit, preliminary, n=1",270±10 U mg^−1
